Each block holds one molecule with its values, some of them ahead of it.
What was measured:
[1] = system: 3×MBT domain of L3MBTL1; assay: Triple SILAC pull-down, 3xMBT/3xMBTD355N ratio (cytoplasmic, nuclear and chromatin fractions of 293T cells); type: binding, human; settings: SILAC ratio, pull-down 3xMBT vs 3xMBTD355N; for 3xMBT/D355N UNC Heavy: experiment with UNC0638 in heavy SILAC media; for 3xMBT/D355N UNC Light: experiment with UNC0638 in light SILAC media;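 as to all read-outs here: proteins quantified with MaxQuant, requiring at least two unique peptides and quantification in both label directions, normalized to the mean of proteins from a digested loading control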
[2] = molecular target: T1, G9a and GLP (Homo sapiens, UniProt Q96KQ7+Q9H9B1); assay: Triple SILAC pull-down after UNC0638 treatment of 293T cells, DMSO/UNC0638 ratio of protein captured by 3×MBT; type: cell-based; parameters: cells were treated for 24 hours with UNC0638 at 2.5 μM or DMSO vehicle control; endogenous in cells; host or cells: HEK 293T; settings: for Relative to UNC0638 UNC Heavy / Relative to UNC0638 UNC Light: SILAC ratio DMSO/UNC0638 of protein pulled down with 3xMBT; for Relative to UNC0638 UNC Heavy: UNC0638 in heavy SILAC media; for Relative to UNC0638 UNC Light: UNC0638 in light SILAC media; for Relative to UNC0638 Average: average of UNC Light and UNC Heavy experiments;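 as to all read-outs here: mass spectrometry (Q-Exactive) SILAC quantitation, DMSO/UNC0638 ratio computed after subtracting 3×MBTD355N mutant pull-down background, only proteins with at least twofold 3×MBT over mutant signal considered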
T1 sequence (Q96KQ7 2-1210 limits assumed): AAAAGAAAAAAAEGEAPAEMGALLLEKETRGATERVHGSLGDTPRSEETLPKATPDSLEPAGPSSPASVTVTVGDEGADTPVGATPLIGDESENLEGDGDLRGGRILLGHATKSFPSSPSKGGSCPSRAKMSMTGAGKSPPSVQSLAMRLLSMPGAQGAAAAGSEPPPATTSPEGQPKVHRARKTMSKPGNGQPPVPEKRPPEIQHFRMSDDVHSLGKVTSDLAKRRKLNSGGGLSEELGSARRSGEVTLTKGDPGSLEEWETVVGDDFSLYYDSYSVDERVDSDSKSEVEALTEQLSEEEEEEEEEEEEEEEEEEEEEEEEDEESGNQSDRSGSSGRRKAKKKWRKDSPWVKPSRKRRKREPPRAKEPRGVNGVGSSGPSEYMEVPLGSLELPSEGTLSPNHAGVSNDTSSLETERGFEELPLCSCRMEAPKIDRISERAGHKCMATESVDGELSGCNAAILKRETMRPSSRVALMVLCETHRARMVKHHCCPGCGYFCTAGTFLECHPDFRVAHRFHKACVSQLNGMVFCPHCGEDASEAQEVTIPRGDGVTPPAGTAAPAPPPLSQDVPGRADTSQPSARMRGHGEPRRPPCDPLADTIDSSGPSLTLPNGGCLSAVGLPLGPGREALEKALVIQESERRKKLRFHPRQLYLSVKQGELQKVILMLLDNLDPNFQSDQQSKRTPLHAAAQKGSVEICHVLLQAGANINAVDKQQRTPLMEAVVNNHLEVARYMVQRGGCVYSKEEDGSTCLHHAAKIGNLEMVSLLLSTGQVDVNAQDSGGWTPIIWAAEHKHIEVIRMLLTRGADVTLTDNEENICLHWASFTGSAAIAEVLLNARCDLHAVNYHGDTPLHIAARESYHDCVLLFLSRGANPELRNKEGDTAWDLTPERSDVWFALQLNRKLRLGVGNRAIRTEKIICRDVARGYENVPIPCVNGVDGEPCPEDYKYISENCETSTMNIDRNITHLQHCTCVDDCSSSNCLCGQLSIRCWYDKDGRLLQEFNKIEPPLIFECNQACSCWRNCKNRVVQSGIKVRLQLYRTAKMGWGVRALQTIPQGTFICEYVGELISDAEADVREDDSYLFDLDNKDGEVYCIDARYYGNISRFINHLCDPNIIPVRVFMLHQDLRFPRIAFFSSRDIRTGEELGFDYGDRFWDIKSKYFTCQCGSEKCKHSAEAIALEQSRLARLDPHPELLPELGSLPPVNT
T1 sequence (Q9H9B1 2-1298 limits assumed): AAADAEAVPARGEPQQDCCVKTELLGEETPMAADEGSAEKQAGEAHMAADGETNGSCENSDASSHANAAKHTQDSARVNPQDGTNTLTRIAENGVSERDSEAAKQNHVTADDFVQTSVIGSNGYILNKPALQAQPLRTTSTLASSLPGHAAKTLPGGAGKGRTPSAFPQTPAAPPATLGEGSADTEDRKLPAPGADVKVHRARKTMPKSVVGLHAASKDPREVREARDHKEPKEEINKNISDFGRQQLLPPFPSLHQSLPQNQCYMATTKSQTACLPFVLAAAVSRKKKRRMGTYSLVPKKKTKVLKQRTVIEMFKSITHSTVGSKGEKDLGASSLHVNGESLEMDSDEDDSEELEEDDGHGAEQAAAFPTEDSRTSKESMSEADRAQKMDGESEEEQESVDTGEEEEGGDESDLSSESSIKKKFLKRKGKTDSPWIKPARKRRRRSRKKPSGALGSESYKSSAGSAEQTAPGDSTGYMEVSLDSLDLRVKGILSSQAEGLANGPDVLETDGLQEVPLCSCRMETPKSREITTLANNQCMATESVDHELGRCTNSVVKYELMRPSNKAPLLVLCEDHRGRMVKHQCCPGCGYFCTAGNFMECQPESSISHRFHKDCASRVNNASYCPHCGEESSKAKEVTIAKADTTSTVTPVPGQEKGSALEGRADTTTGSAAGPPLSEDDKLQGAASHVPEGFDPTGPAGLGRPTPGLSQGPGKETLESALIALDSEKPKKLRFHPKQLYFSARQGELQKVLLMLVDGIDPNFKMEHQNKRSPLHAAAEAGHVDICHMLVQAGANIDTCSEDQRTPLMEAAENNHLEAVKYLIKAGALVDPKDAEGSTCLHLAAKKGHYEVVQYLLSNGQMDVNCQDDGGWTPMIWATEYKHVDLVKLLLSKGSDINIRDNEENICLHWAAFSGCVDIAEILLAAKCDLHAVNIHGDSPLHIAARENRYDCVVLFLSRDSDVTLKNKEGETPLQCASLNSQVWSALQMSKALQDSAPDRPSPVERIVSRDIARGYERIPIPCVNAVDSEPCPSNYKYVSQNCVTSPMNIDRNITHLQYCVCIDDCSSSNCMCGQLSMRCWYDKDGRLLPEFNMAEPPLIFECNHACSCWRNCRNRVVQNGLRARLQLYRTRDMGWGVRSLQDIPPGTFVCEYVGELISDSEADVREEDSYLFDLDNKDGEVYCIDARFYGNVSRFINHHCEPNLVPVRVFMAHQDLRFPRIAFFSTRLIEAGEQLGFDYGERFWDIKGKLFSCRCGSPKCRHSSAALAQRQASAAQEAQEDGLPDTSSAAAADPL

Relative to UNC0638 UNC Heavy [2]: 0.29 log base 2
Relative to UNC0638 UNC Light [2]: 0.20 log base 2
Relative to UNC0638 Average [2]: 0.25 log base 2
B1: CACYBP (protein, UniProt Q9HB71 2-228, looked up)
Calcyclin-binding protein: ASEELQKDLEEVKVLLEKATRKRVRDALTAEKSKIETEIKNKMQQKSQKKAELLDNEKPAAVVAPITTGYTVKISNYGWDQSDKFVKIYITLTGVHQVPTENVQVHFTERSFDLLVKNLNGKSYSMIVNNLLKPISVEGSSKKVKTDTVLILCRKKVENTRWDYLTQVEKECKEKEKPSYDTETDPSEGLMNVLKKIYEDGDDDMKRTINKAWVESREKQAKGDTEF
3xMBT/D355N UNC Heavy [1]: 1.46 log base 2
3xMBT/D355N UNC Light [1]: 1.48 log base 2

Relative to UNC0638 UNC Heavy [2]: 0.23 log base 2
Relative to UNC0638 UNC Light [2]: 0.27 log base 2
Relative to UNC0638 Average [2]: 0.25 log base 2
B2: U2SURP (protein, UniProt O15042 2-1029, looked up)
U2 snRNP-associated SURP …: ADKTPGGSQKASSKTRSSDVHSSGSSDAHMDASGPSDSDMPSRTRPKSPRKHNYRNESARESLCDSPHQNLSRPLLENKLKAFSIGKMSTAKRTLSKKEQEELKKKEDEKAAAEIYEEFLAAFEGSDGNKVKTFVRGGVVNAAKEEHETDEKRGKIYKPSSRFADQKNPPNQSSNERPPSLLVIETKKPPLKKGEKEKKKSNLELFKEELKQIQEERDERHKTKGRLSRFEPPQSDSDGQRRSMDAPSRRNRSSGVLDDYAPGSHDVGDPSTTNLYLGNINPQMNEEMLCQEFGRFGPLASVKIMWPRTDEERARERNCGFVAFMNRRDAERALKNLNGKMIMSFEMKLGWGKAVPIPPHPIYIPPSMMEHTLPPPPSGLPFNAQPRERLKNPNAPMLPPPKNKEDFEKTLSQAIVKVVIPTERNLLALIHRMIEFVVREGPMFEAMIMNREINNPMFRFLFENQTPAHVYYRWKLYSILQGDSPTKWRTEDFRMFKNGSFWRPPPLNPYLHGMSEEQETEAFVEEPSKKGALKEEQRDKLEEILRGLTPRKNDIGDAMVFCLNNAEAAEEIVDCITESLSILKTPLPKKIARLYLVSDVLYNSSAKVANASYYRKFFETKLCQIFSDLNATYRTIQGHLQSENFKQRVMTCFRAWEDWAIYPEPFLIKLQNIFLGLVNIIEEKETEDVPDDLDGAPIEEELDGAPLEDVDGIPIDATPIDDLDGVPIKSLDDDLDGVPLDATEDSKKNEPIFKVAPSKWEAVDESELEAQAVTTSKWELFDQHEESEEEENQNQEEESEDEEDTQSSKSEEHHLYSNPIKEEMTESKFSKYSEMSEEKRAKLREIELKVMKFQDELESGKRPKKPGQSFQEQVEHYRDKLLQREKEKELERERERDKKDKEKLESRSKDKKEKDECTPTRKERKRRHSTSPSPSRSSSGRRVKSPSPKSERSERSERSHKESSRSRSSHKDSPRDVSKKAKRSPSGSRTPKRSRRSRSRSPKKSGKKSRSQSRSPHRSHKKSKKNKH
3xMBT/D355N UNC Heavy [1]: 3.19 log base 2
3xMBT/D355N UNC Light [1]: 2.58 log base 2

Relative to UNC0638 UNC Heavy [2]: 0.27 log base 2
Relative to UNC0638 UNC Light [2]: 0.23 log base 2
Relative to UNC0638 Average [2]: 0.25 log base 2
B3: PRDX6 (protein, UniProt P30041 2-224, looked up)
Peroxiredoxin-6: PGGLLLGDVAPNFEANTTVGRIRFHDFLGDSWGILFSHPRDFTPVCTTELGRAAKLAPEFAKRNVKLIALSIDSVEDHLAWSKDINAYNCEEPTEKLPFPIIDDRNRELAILLGMLDPAEKDEKGMPVTARVVFVFGPDKKLKLSILYPATTGRNFDEILRVVISLQLTAEKRVATPVDWKDGDSVMVLPTIPEEEAKKLFPKGVFTKELPSGKKYLRYTPQP
3xMBT/D355N UNC Heavy [1]: 2.01 log base 2
3xMBT/D355N UNC Light [1]: 2.00 log base 2

— US20140274782A1, “AFFINITY REAGENTS AND METHODS FOR DETECTION, PURIFICATION, AND PROTEOMIC ANALYSIS OF METHYLATED PROTEINS” (The Board of Trustees of the Leland Stanford Junior …, priority 2013, published 2014)
